Assay results taken from US8367615B2, “Stimulation of neuron regeneration by secretory leukocyte protease inhibitor” (Research Foundation of City University of New York, priority 2006, dated 2013).

Key:
DRG neurons = assay: Microarray analysis of gene expression in DRG neurons; format: cell-based; details: DRG neurons that received dbcAMP
Text: The effects of cAMP were the result of its ability to induce gene transcription.

older neurons = details: cAMP levels elevated by treatment, previously established (WO 01/85981); cited from earlier work
[1] = system: transected nerve fibers in the spinal cord; details: in vivo injection; previously established (WO 01/85981); cited from earlier work
[2] = Tolerability on administration to live animals; format: in vivo
cortical neurons = assay: Neurite outgrowth of cortical neurons on central nervous system myelin; format: cell-based; details: 5 and 10 μg/ml, post-natal day 1 rat cortical neurons on CNS myelin
Procedure: FIGS. 2A and 2B are a panel of four photographs and a bar graph, respectively, showing that SLPI enhances neurite outgrowth on myelin for cortical neurons. Cortical neurons from post-natal day 1 rats were treated with 1 mM dibutyrl cAMP (dbcAMP) and 5 or 10 μg/ml SLPI, and plated onto 8-well chamber slides coated with central nervous system myelin (1 μg per well). Neurons were incubated for 24 hours and immunostained for βIII tubulin. The bar graph depicts average neurite length ±SEM.
Unlike DRG neurons, cortical neurons were inhibited by MAG and myelin at post-natal day 1.

optic nerve = assay: Optic nerve crush, GAP-43 staining of regenerating axons; format: in vivo, rat; details: single intravitreal injection of 10 micrograms after optic nerve crush; two weeks; adult male Fischer rats
Procedure: SLPI's ability to promote axonal regeneration in vivo in the optic nerve was investigated. Adult male Fischer rats (200-300 g, Charles River Laboratories) were anesthetized with isofluorane and placed in a stereotaxic frame. Optic nerve crush was performed as follows. The right optic nerve was exposed and the meninges were removed. The nerve was then crushed for 10 seconds with fine forceps at a distance of 2 mm behind the eye. Special care was taken to avoid injury to the opthalmic artery. After closing the incision, the animal received a single intravitreal injection of either 5 microliters sterile saline or 10 micrograms of recombinant human SLPI (R&D Systems; 2 micrograms/microliter in 5 microliters sterile saline) in the right eye. After a two-week post-surgical survival period, the animals were sacrificed by transcardial perfusion with 4% paraformaldehyde and the optic nerves were dissected. Nerves were sectioned at a thickness of 20 microns and thaw-mounted onto gelatin-coated slides. Sections were immunostained for GAP-43 using a polyclonal sheep anti-GAP-43 antibody diluted 1:1000 in a solution of 5% rabbit serum, 2% BSA, and 0.1% Tween in Tris-buffered saline (TBS). […] Slides were coverslipped with Permafluor mounting medium (Thermo) and viewed under fluorescence. […]

[3] = system: dorsal root ganglia (DRG) neurons; assay: Neurite outgrowth of DRG neurons on MAG-expressing CHO cell monolayers; format: cell-based, rat
Procedure: FIGS. 1A and 1B are a panel of four photographs and a bar graph, respectively, showing that SLPI reverses inhibition by MAG for dorsal root ganglia (“DRG”) neurons. DRG neurons from post-natal day 6 rats were treated with 2, 5, or 10 μg/ml SLPI, plated onto monolayers of either control or MAG-expressing Chinese hamster ovary (“CHO”) cells, and incubated for 16 hours. Neurons were stained for βIII tubulin and neurite length was quantified using the METAMORPH image analysis software. Data are presented ±SEM.

adult DRG neurons = assay: In vivo intrathecal delivery, then neurite outgrowth of adult DRG neurons on MAG-expressing CHO cells; set-up: species or system rat; details: 2 and 5 μg/kg/hr intrathecal for 24 hours in adult rats, neurons plated on MAG-expressing CHO cells
Procedure: FIGS. 3A and 3B are a panel of four photographs and a bar graph, respectively, showing that in vivo delivery of SLPI overcomes MAG inhibition for adult DRG neurons. DRG neurons from adult rats that received infusion of 1, 2, or 5 μg/kg/hr SLPI into the spinal cord for 24 hours were plated onto control or MAG-expressing CHO cells. Neurons were incubated for 16 hours and stained for βIII tubulin. The bar graph depicts average neurite length ±SEM.
SLPI was delivered to the spinal cord by a pump.

CCCC(=O)Nc1ncnc2c1ncn2[C@@H]1O[C@@H]2COP(=O)(O)O[C@H]2[C@H]1OC(=O)CCC [dbcAMP, dibutyrl cAMP]
expression of SLPI (DRG neurons): greatly increased | inhibition by MAG and myelin of nerve fiber growth (older neurons): inhibition was reversed | regeneration of transected nerve fibers in the spinal cord [1]: led to regeneration

B1: secretory leukocyte protease inhibitor (protein, UniProt P03973 26-132, looked up)
Antileukoproteinase: SGKSFKAGVCPPKKSAQCLRYKKPECQSDWQCPGKKRCCPDTCGIKCLDPVDTPNPTRRKPGKCPVTYGQCLMLNPPNFCEMDGQCKRDLKCCMGMCGKSCVSPVKA
toxicity when administered to live animals [2]: non-toxic | neurite outgrowth on myelin, effect compared with 1 mM dbcAMP (cortical neurons): equivalent to that seen with dibutyryl AMP (dbcAMP) | neurite outgrowth on myelin (cortical neurons; 24 hours): significantly increased | GAP-43 positive axons in the crushed optic nerve (optic nerve): numerous GAP-43 positive axons | axons extending beyond the lesion site (optic nerve): several of them extend beyond the lesion site | neurite outgrowth on MAG, most effective concentrations ([3]; 5 and 10 μg/ml, post-natal day 6 rat DRG neurons on MAG-expressing CHO cells): most extensive growth | neurite outgrowth on MAG ([3]; post-natal day 6 rat DRG neurons treated with 2, 5 or 10 μg/ml, on MAG-expressing CHO cells, 16 hours): significantly increased | MAG inhibition of DRG neurons after intrathecal delivery (adult DRG neurons): blocks MAG inhibition | neurite outgrowth after intrathecal delivery (adult DRG neurons; 16 hours): significant increases
